Tested on: p1
Test: p1 copy number by p1-encoded mKate2 fluorescence
Type: cell-based, S. cerevisiae
Settings: OR-Y24, measured in triplicate
Procedure: A calibration curve was established to correlate p1 copy number, determined via quantitative PCR (qPCR), with fluorescence of p1-encoded mKate2 (Table 1). Five TP-DNAP1 variants representing a wide range of copy numbers were transformed into ORY24 and passaged until w.t. p1 was displaced. The five OR-Y24 strains were grown to saturation, diluted 1:10,000 to mimic p1 fluctuation tests, and grown in triplicate 100 μL cultures and duplicate 40 mL cultures. 100 μL saturated cultures were subject to fluorescence measurement of mKate2 (ex/em=561 nm/620 nm, bandwidth=15 nm) on a flow cytometer (Invitrogen Attune NxT). Whole-cell DNA extracts were prepared from 40 mL cultures and used as templates for qPCR measurement of p1-encoded leu2 (Q180*), as described previously (Ravikumar et al., 2014). p1-encoded LEU2 was PCR amplified with qPCR-Leu2F and qPCR Leu2R; and genomic LEU3 was PCR amplified with qPCR-Leu3F and qPCR-Leu3R using SyBR Green (Fisher Scientific) master mix.
To assay p1 copy number for large-scale p1 fluctuation tests, additional replicates of OR-Y24 strains were grown from the 1:10,000 dilution in triplicate and saturated cultures were subject to fluorescence measurement via flow cytometry. Fluorescence measurements were converted to copy number with the linear calibration curve.
To assay relative p1 copy number for small-scale p1 fluctuation tests, an additional 200 μL culture of OR-Y24 strains were grown from the 1:10,000 dilution. 200 μL saturated cultures were subject to an OD600 measurement and fluorescence measurement of mKate2 (ex/em=588 nm/633 nm), using a microplate reader (TECAN Infinite M200 PRO). A linear relationship was assumed between p1 copy number and OD600-normalized mKate2 fluorescence. Copy numbers were calculated from normalization to a w.t. TP-DNAP1 control.
For a few large-scale p1 fluctuation tests, p1 copy number was assayed by the method of small scale p1 fluctuation tests (i.e. microplate reader measurement). For these experiments, mutant TP-DNAP1 p1 copy numbers were calculated by normalization to a w.t. TP-DNAP1 control. The copy number of this control was assumed to be the average w.t. TP-DNAP1 copy number from all large-scale p1 fluctuation tests that used flow cytometry measurements.
TP-DNAP1 plasmids were isolated from these strains and subject to Sanger sequencing. 210 unique variants were identified and the corresponding plasmids were re-transformed into OR-Y24. Transformed strains were passaged in SC-UH until w.t. p1 was displaced, and subject to p1 copy number measurement in triplicate. Four high copy variants were directly subject to qPCR measurements for validation. To test the suppressor activity of the G410H mutation, which yields increased p1 copy number, this amino acid change was added to several low-activity TP-DNAP1 variants. p1 copy number was similarly assayed for these strains.

| Molecule | Mean fold-increase over w.t. (p1 copy number) |
| --- | --- |
| F616E: TP-DNAP1 variant (protein) MDYKDKALNDLRNVYADFDSLPLDFRQILIKDRATLLQKEDVEKKILERQEDAKKYAEYLKQSEIPERISLPNIKRHKGVSISFEETSEDMVLEPRPFIFDGLNIRCFRRETIFSLKNKILNMVKESSSFKNVSRQSVSFMYFKIFNKGKVIASTKSVNIYEDKIDERLEDLCNNFDDVLKKIIDVTYGYESLFVSETYSYVIFYAKSIYFPQPRCVNNWGNNIPNILTFDSFKLFTANKNNVSCIKQCSRFLWQKDFNTLEEMIEYKNGNICIVTPQLHINDVRDIKSFNDIRLYSESPIKTFSVIDNTITYLFYFKEHLGVIFNITKSRHDRRVTKFSPLSKFSDVKNITVCFDIESYFDPEKESNQVNIPFICCASIIYNKVIGNIVDFEGRDCVAQMIEYVVDICGELNISSVELIAHNGGGYDFHYILSSMYNPAAIKNILIRNNSFISFNFAHDGVKFSVKDSYSFLLCSLANASKAFLNEETFKKTDFPHHDLKTADDLYKVYKEWSSVNTEINHVVEKEKLLITSEHIVNFTKNDKSKTLIEWSKDYCRNDVLVLSKVWLEFKNAVEDIFNCELVDQTMTLAGLSYKLFQANMPFDVELRHPNKEDYENMREALIGGRCISVNGIYKDVLCLDVKSLYPASMAFYDQPYGSFKRVSSRPKDELGIYYVRVTPNRNNKSNFFPIRSHNKITYNNFEESTYIAWYTNVDIDIGLSEGHNIEYIPFDSYGNIGYSWSKKGKIFEKYIKDVLYKLKIKYEKQNNKVKRNVIKIIMNSLWGKFAQKWVNFEYFIKSEDDIDFESEEAYKIWDTDFMLIKKIKESTYSSKPIQNGVFTLSWARYHMKSIWDAGAKEGAECIYSDTDSIFVHKEHFKKNAKFMLNGLKVPIIGSEVGQLELECEFDKLLCAGKKQYMGFYTYFQDGKPCIKEKKRFKGIPSNYIIPELYAHLLSGADKEAKIQFLKFRREWGSVKGYIENKTVKAT | 2.2 fold |
| N291W: TP-DNAP1 variant (protein) MDYKDKALNDLRNVYADFDSLPLDFRQILIKDRATLLQKEDVEKKILERQEDAKKYAEYLKQSEIPERISLPNIKRHKGVSISFEETSEDMVLEPRPFIFDGLNIRCFRRETIFSLKNKILNMVKESSSFKNVSRQSVSFMYFKIFNKGKVIASTKSVNIYEDKIDERLEDLCNNFDDVLKKIIDVTYGYESLFVSETYSYVIFYAKSIYFPQPRCVNNWGNNIPNILTFDSFKLFTANKNNVSCIKQCSRFLWQKDFNTLEEMIEYKNGNICIVTPQLHINDVRDIKSFWDIRLYSESPIKTFSVIDNTITYLFYFKEHLGVIFNITKSRHDRRVTKFSPLSKFSDVKNITVCFDIESYFDPEKESNQVNIPFICCASIIYNKVIGNIVDFEGRDCVAQMIEYVVDICGELNISSVELIAHNGGGYDFHYILSSMYNPAAIKNILIRNNSFISFNFAHDGVKFSVKDSYSFLLCSLANASKAFLNEETFKKTDFPHHDLKTADDLYKVYKEWSSVNTEINHVVEKEKLLITSEHIVNFTKNDKSKTLIEWSKDYCRNDVLVLSKVWLEFKNAVEDIFNCELVDQTMTLAGLSYKLFQANMPFDVELRHPNKEDYFNMREALIGGRCISVNGIYKDVLCLDVKSLYPASMAFYDQPYGSFKRVSSRPKDELGIYYVRVTPNRNNKSNFFPIRSHNKITYNNFEESTYIAWYTNVDIDIGLSEGHNIEYIPFDSYGNIGYSWSKKGKIFEKYIKDVLYKLKIKYEKQNNKVKRNVIKIIMNSLWGKFAQKWVNFEYFIKSEDDIDFESEEAYKIWDTDFMLIKKIKESTYSSKPIQNGVFTLSWARYHMKSIWDAGAKEGAECIYSDTDSIFVHKEHFKKNAKFMLNGLKVPIIGSEVGQLELECEFDKLLCAGKKQYMGFYTYFQDGKPCIKEKKRFKGIPSNYIIPELYAHLLSGADKEAKIQFLKFRREWGSVKGYIENKTVKAT | 2.26 fold |
| R662A: TP-DNAP1 variant (protein) MDYKDKALNDLRNVYADFDSLPLDFRQILIKDRATLLQKEDVEKKILERQEDAKKYAEYLKQSEIPERISLPNIKRHKGVSISFEETSEDMVLEPRPFIFDGLNIRCFRRETIFSLKNKILNMVKESSSFKNVSRQSVSFMYFKIFNKGKVIASTKSVNIYEDKIDERLEDLCNNFDDVLKKIIDVTYGYESLFVSETYSYVIFYAKSIYFPQPRCVNNWGNNIPNILTFDSFKLFTANKNNVSCIKQCSRFLWQKDFNTLEEMIEYKNGNICIVTPQLHINDVRDIKSFNDIRLYSESPIKTFSVIDNTITYLFYFKEHLGVIFNITKSRHDRRVTKFSPLSKFSDVKNITVCFDIESYFDPEKESNQVNIPFICCASIIYNKVIGNIVDFEGRDCVAQMIEYVVDICGELNISSVELIAHNGGGYDFHYILSSMYNPAAIKNILIRNNSFISFNFAHDGVKFSVKDSYSFLLCSLANASKAFLNEETFKKTDFPHHDLKTADDLYKVYKEWSSVNTEINHVVEKEKLLITSEHIVNFTKNDKSKTLIEWSKDYCRNDVLVLSKVWLEFKNAVEDIFNCELVDQTMTLAGLSYKLFQANMPFDVELRHPNKEDYFNMREALIGGRCISVNGIYKDVLCLDVKSLYPASMAFYDQPYGSFKAVSSRPKDELGIYYVRVTPNRNNKSNFFPIRSHNKITYNNFEESTYIAWYTNVDIDIGLSEGHNIEYIPFDSYGNIGYSWSKKGKIFEKYIKDVLYKLKIKYEKQNNKVKRNVIKIIMNSLWGKFAQKWVNFEYFIKSEDDIDFESEEAYKIWDTDFMLIKKIKESTYSSKPIQNGVFTLSWARYHMKSIWDAGAKEGAECIYSDTDSIFVHKEHFKKNAKFMLNGLKVPIIGSEVGQLELECEFDKLLCAGKKQYMGFYTYFQDGKPCIKEKKRFKGIPSNYIIPELYAHLLSGADKEAKIQFLKFRREWGSVKGYIENKTVKAT | 1.75 fold |
| E620R: TP-DNAP1 variant (protein) MDYKDKALNDLRNVYADFDSLPLDFRQILIKDRATLLQKEDVEKKILERQEDAKKYAEYLKQSEIPERISLPNIKRHKGVSISFEETSEDMVLEPRPFIFDGLNIRCFRRETIFSLKNKILNMVKESSSFKNVSRQSVSFMYFKIFNKGKVIASTKSVNIYEDKIDERLEDLCNNFDDVLKKIIDVTYGYESLFVSETYSYVIFYAKSIYFPQPRCVNNWGNNIPNILTFDSFKLFTANKNNVSCIKQCSRFLWQKDFNTLEEMIEYKNGNICIVTPQLHINDVRDIKSFNDIRLYSESPIKTFSVIDNTITYLFYFKEHLGVIFNITKSRHDRRVTKFSPLSKFSDVKNITVCFDIESYFDPEKESNQVNIPFICCASIIYNKVIGNIVDFEGRDCVAQMIEYVVDICGELNISSVELIAHNGGGYDFHYILSSMYNPAAIKNILIRNNSFISFNFAHDGVKFSVKDSYSFLLCSLANASKAFLNEETFKKTDFPHHDLKTADDLYKVYKEWSSVNTEINHVVEKEKLLITSEHIVNFTKNDKSKTLIEWSKDYCRNDVLVLSKVWLEFKNAVEDIFNCELVDQTMTLAGLSYKLFQANMPFDVELRHPNKEDYFNMRRALIGGRCISVNGIYKDVLCLDVKSLYPASMAFYDQPYGSFKRVSSRPKDELGIYYVRVTPNRNNKSNFFPIRSHNKITYNNFEESTYIAWYTNVDIDIGLSEGHNIEYIPFDSYGNIGYSWSKKGKIFEKYIKDVLYKLKIKYEKQNNKVKRNVIKIIMNSLWGKFAQKWVNFEYFIKSEDDIDFESEEAYKIWDTDFMLIKKIKESTYSSKPIQNGVFTLSWARYHMKSIWDAGAKEGAECIYSDTDSIFVHKEHFKKNAKFMLNGLKVPIIGSEVGQLELECEFDKLLCAGKKQYMGFYTYFQDGKPCIKEKKRFKGIPSNYIIPELYAHLLSGADKEAKIQFLKFRREWGSVKGYIENKTVKAT | 2.29 fold |
| R662C: TP-DNAP1 variant (protein) MDYKDKALNDLRNVYADFDSLPLDFRQILIKDRATLLQKEDVEKKILERQEDAKKYAEYLKQSEIPERISLPNIKRHKGVSISFEETSEDMVLEPRPFIFDGLNIRCFRRETIFSLKNKILNMVKESSSFKNVSRQSVSFMYFKIFNKGKVIASTKSVNIYEDKIDERLEDLCNNFDDVLKKIIDVTYGYESLFVSETYSYVIFYAKSIYFPQPRCVNNWGNNIPNILTFDSFKLFTANKNNVSCIKQCSRFLWQKDFNTLEEMIEYKNGNICIVTPQLHINDVRDIKSFNDIRLYSESPIKTFSVIDNTITYLFYFKEHLGVIFNITKSRHDRRVTKFSPLSKFSDVKNITVCFDIESYFDPEKESNQVNIPFICCASIIYNKVIGNIVDFEGRDCVAQMIEYVVDICGELNISSVELIAHNGGGYDFHYILSSMYNPAAIKNILIRNNSFISFNFAHDGVKFSVKDSYSFLLCSLANASKAFLNEETFKKTDFPHHDLKTADDLYKVYKEWSSVNTEINHVVEKEKLLITSEHIVNFTKNDKSKTLIEWSKDYCRNDVLVLSKVWLEFKNAVEDIFNCELVDQTMTLAGLSYKLFQANMPFDVELRHPNKEDYFNMREALIGGRCISVNGIYKDVLCLDVKSLYPASMAFYDQPYGSFKCVSSRPKDELGIYYVRVTPNRNNKSNFFPIRSHNKITYNNFEESTYIAWYTNVDIDIGLSEGHNIEYIPFDSYGNIGYSWSKKGKIFEKYIKDVLYKLKIKYEKQNNKVKRNVIKIIMNSLWGKFAQKWVNFEYFIKSEDDIDFESEEAYKIWDTDFMLIKKIKESTYSSKPIQNGVFTLSWARYHMKSIWDAGAKEGAECIYSDTDSIFVHKEHFKKNAKFMLNGLKVPIIGSEVGQLELECEFDKLLCAGKKQYMGFYTYFQDGKPCIKEKKRFKGIPSNYIIPELYAHLLSGADKEAKIQFLKFRREWGSVKGYIENKTVKAT | 1.7 fold |
